Test results reported in patent US11834472B2, “Anti-IL-22 antibodies, antibody fragments, their immunoconjugates and uses thereof” (BioAtla, Inc., priority 2018, dated 2023).
Positions count from the first letter of the chain named. Names and notes keep the numbering of the source. Read-outs that look alike come from different tables or passages of the source.

T1: human IL-22 (Homo sapiens, UniProt Q9GZX6)
T1 sequence (Q9GZX6 34-179): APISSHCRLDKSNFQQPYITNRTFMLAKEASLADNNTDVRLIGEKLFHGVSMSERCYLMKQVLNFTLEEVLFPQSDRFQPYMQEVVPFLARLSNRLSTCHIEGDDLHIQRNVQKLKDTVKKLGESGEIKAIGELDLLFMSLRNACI

T2: mouse IL-22 (Mus musculus, UniProt Q9JJY9)
T2 sequence (Q9JJY9 34-179): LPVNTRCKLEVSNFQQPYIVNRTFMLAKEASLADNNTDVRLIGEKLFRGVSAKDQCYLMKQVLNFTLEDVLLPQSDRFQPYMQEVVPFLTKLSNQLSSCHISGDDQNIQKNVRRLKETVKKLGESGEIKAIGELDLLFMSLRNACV

T3: mouse IL-22 (mIL-22) (Mus musculus, UniProt Q9JJY9)
T3 sequence (Q9JJY9 34-179): T2 sequence (Q9JJY9 34-179)

T4: mIL22 (Mus musculus, UniProt Q9JJY9)
T4 sequence (Q9JJY9 34-179): T2 sequence (Q9JJY9 34-179)

B1: CPS09: mutant anti-IL-22 antibody binding human and mouse IL-22; light chain LC-04, heavy chain HC-25 (antibody, V domains shown)
VH: QVQLVQSGAEVKKPGASVKVSCKASGYIFRSYWIHWIRQPPGKGLEWIGRIYPGTGRTYYNEKFKGRVTISADKSISTAYLQWSSLKASDTAMYYCARSYDYSVAYWGQGTLVTVSS
VL: AIQLTQSPSSLSASVGDRVTITCSASSSVSYMHWYLQKPGQSPQLLIYETRKLASGVPSRFSGSGSGTDFTFTISSLEAEDAATYYCQQWSSNPYITFGQGTKVEIKR
B2: CPS17: mutant anti-IL-22 antibody binding human and mouse IL-22; light chain LC-04, heavy chain HC-49 (antibody, V domains shown)
VH: B1 VH with R57N, E62R, D101M
VL: B1 VL
B3: LC-E049K: one of the mutant antibodies in the CPE library, used as a control (antibody, V domains shown)
VH: B1 VH with R30T, R57N, Y102S, V104C
VL: B1 VL with E49K, R51S
B4: CPS04: mutant anti-IL-22 antibody binding human and mouse IL-22; light chain LC-07, heavy chain HC-09 (antibody, V domains shown)
VH: B1 VH with R57N, E62R, Y102S
VL: B1 VL with E49K, R51S, A54L
B5: CPS14 (antibody, V domains shown)
VH: B1 VH with R30T, E62R
VL: B1 VL
B6: hum10: parent humanized monoclonal antibody against human IL-22; light chain variable region SEQ ID NO: 19, heavy chain variable region SEQ ID NO:20 (antibody, V domains shown)
VH: B1 VH with R30T, R57N, Y102S, V104C
VL: B1 VL with R51S
modifications: Synthetic sequence hum10-HC; Synthetic sequence hum10-LC

Assays:
human IL-22 = target: T1, human IL-22; assay: SPR capture assay, affinity to human IL-22; type: binding; conditions: human IL-22, SPR
Method: (§1) The affinity of the 10 antibodies of Table 1 was measured by Surface Plasma Resonance (SPR) using a capture assay in PBS buffer to generate binding curves at four different concentrations of each antibody (0.05, 0.1, 0.5, and 1.0 μg/ml). The Ka, Kd and KD values for the mutant antibodies were calculated from the curves for each of the antibodies.
(§2) The affinity of the 10 antibodies of Table 1 was measured by Surface Plasma Resonance (SPR) using a capture assay on a SPR-2 instrument (SierraSensiors, Hamburg, Germany). The antigens hIL-22 and mIL-22 were immobilized on chips. The running buffer for the assay contained 10 mM HEPES with a pH of 7.4, 500 mM NaCl, and 0.05% TWEEN® 20. […] The off-rate was measured for 6 minutes. Binding constants were calculated using the curve fitting software Analyzer2 (Sierra Sensors). Sensorgrams were analyzed with the instrument specific software and with BIAevaluation 4.1 software. The binding data were analyzed using the Langmuir 1:1 model (human IL-22) or a model for a heterogeneous ligand ([…]).
(§3) The antibodies were tested at four different concentrations of each antibody: 0.33 nM, 0.67 nM, 3.3 nM, 6.7 nM for hIL-22; 1, 2, […] for mIL-22. Antibody CPE-LC-E049K was used as a control.

mouse IL-22 = target: T2, mouse IL-22; assay: SPR capture assay, affinity to mouse IL-22; type: binding; conditions: mouse IL-22, SPR
Method: as §1, §2, §3

mouse IL-22 (mIL-22) = target: T3, mouse IL-22 (mIL-22); assay: Inhibition of mIL-22 induced Stat3 phosphorylation in HepG2 cells; type: cell-based; conditions: mAb 6.7 nM
Method: One of the immediate functions of IL-22 is inducing phosphorylation of Stat3, a protein in the signaling pathway of IL-22. The 10 antibodies of Table 1 were tested in a cell-based assay for blocking IL-22-dependent phosphorylation of Stat3 through human or mouse IL-22 in HepG2 cells. Antibody hum10 and mutant CPE-LC-E049K were used as controls. Four concentrations of each of the antibodies were used: 0.11 μg/mL, 0.33 μg/mL, 1 μg/mL, and 3 μg/mL.
30,000 human HepG2 cells were seeded in 96 well plates and serum starved overnight. Three-fold dilutions of anti-IL-22 antibodies and control hum10 antibody at concentrations of 0.11 μg/mL, 0.33 μg/mL, 1 μg/mL, and 3 μg/mL were incubated with 200 ng/ml of hIL-22 or mIL-22 at 37° C. for one hour then added to the serum starved human HepG2 cells. The HepG2 cells were incubated with the antibody-IL-22 mixture at 37° C. for 20 minutes. After incubation, HepG2 cells were washed with PBS and lysed. Half of the cell lysate was used to determine the level of phosphorylated Stat3 using Cell Signaling kit #7300 following the vendor's protocol and the other half of the cell lysate was used to determine the level of total Stat3 by Western blot analysis using a Santa Cruz rabbit polyclonal antibody (Sc-7179) against human Stat3.

[1] = Pharmacokinetics in NOD SCID mice, plasma concentration by solid phase ELISA; type: in vivo, mouse; conditions: after a 10 mg/kg IV injection
Method: The pharmacokinetics of the mutant antibodies of Table 1 were analyzed in mice. The antibodies were injected into mice by IV injection at two doses 0.3 mg/kg and 10 mg/kg. The concentrations of the injected antibodies in the blood plasma were measured by solid phase ELISA.
Two anti-IL-22 antibodies CPS02 and CPS09 were tested in NOD SCID mice. The antibodies were injected via IV at two dosages: 0.3 mg/kg and 10 mg/kg. Three mice were used for each dose group. Blood samples were retrieved from the mice at 10 min, 1 h, 3 h 7 h, 24 h, 48 h, 96 h, 168 h, 240 h and 336 h after the IV injection. The concentrations of the injected antibodies in the blood samples were measured by solid phase ELISA.

[2] = system: imiquimod (IMQ) induced psoriasis; type: in vivo; conditions: for reduction in body weight of the treated mice: days 0-7, in comparison to dexamethasone / PBS (FIG. 13)
Text: Two anti-IL-22 antibodies of the present invention, CPS02 and CPS09, were used for the treatment of imiquimod (IMQ) induced psoriasis in mice (FIG. 12). The mice were male BALB/c mice, which were an albino, laboratory-bred strain of the house mouse. A total of 70 mice, at a body weight of 18-20 g, were acclimated for 7 days before induction of psoriasis.
The 70 mice were randomized into 7 groups (10 mice in each group). One group (group 1) was used as a negative control to which no imiquimod was administered to the mice, which was instead replaced with Vaseline. […] The other 6 groups (groups 2-7) were dosed topically with imiquimod at a dosage of 82.5 mg/mouse (5% cream) once daily (qd) for 8 consecutive days from day 0 to day 7 (20 mg for the left ear, 62.5 mg for the shaved back) to induce psoriasis. The back skin was shaved to expose an area of 2×3 cm^2. For the Vaseline control group, the Vaseline was also applied at 82.5 mg/mouse once daily (qd) for 8 consecutive days (20 mg for left ear, 62.5 mg for the shaved back) from day 0 to day 7.
Group 2 was a group of psoriasis-induced mice that were untreated to serve as a control group. The treatment period completely overlapped with the imiquimod application period (day 0 to day 7). For group 2, the mice received both imiquimod and […] on each day of the 8-day period (day 0 to day 7). For the groups that received intravenous (I.V.) injection, the imiquimod was applied within one hour after the I.V. injection on days 0 and 3.
Group 3 was treated with the steroid dexamethasone, which is a current therapeutic treatment used for psoriasis. The dexamethasone was topically applied twice a day (BID) for 8 days. Group 4 was treated with phosphate-buffered saline (PBS), which served as a negative control. Group 5 was treated with an isotype control antibody that also served as a negative control. Groups 6-7 were treated with the anti-IL22 antibodies CPS02 (A) and CPS09 (B), respectively. The treatments for Groups 4-7 were administered by a single intravenous (I.V.) injection on each of days 0 and 3. 3 mice in group 6 died on day 0 and 2 died on day 1. On day 3, the I.V. injection dosage for this group was decreased to 10 mg/kg.
During the 8 day treatment period, the ear thickness was measured on days 0, 3, 5 and 7. The body weight and various skin scores were recorded daily. Pictures of the psoriasis sites were taken on days 0, 3, 5 and 7. On days 1 and 4, about 60 μl blood was collected via retro-orbital bleeding over 24 hours and placed in BD Microtainer® tubes coated with dipotassium ethylenediaminetetraacetic acid (K2EDTA). Plasma was then collected (to get at least 20 μl plasma) and stored at −80° C.
Skin scores for erythema, scales and thickness were measured daily according to an established grading system. The erythema, scales and thickness were scored independently on a scale of from 0 to 4: 0 means none, 1 means slight, 2 means moderate, 3 means marked, and 4 means very marked. The cumulative (total) skin score was also calculated.
The effects of the treatments were analyzed statistically using two-way analysis of variance (ANOVA, Bonferroni post-tests) or one-way ANOVA analysis. For comparisons between the treatment groups and the control group, the p value is denoted in FIGS. 13-18 as (*) if less than 0.05, (**) if less than 0.01, or (***) if less than 0.001.

[3] = Aggregate formation at 10 mg/mL in PBS; type: physicochemical
Thermostability = type: physicochemical
mIL22 = target: T4, mIL22; assay: Affinity ELISA mIL22; type: binding
Text: The CPE™ library was screened for antibodies that were able to bind to both human IL-22 and mouse IL-22 with high affinity. Specifically, the CPE™ variants were screened by affinity ELISA for mouse IL-22 (mIL-22) binding affinity. The hum10 was included in every affinity ELISA plate as a control. The CPE™ variants with increased binding affinity to mIL-22 compared to hum10 were scored as primary CPE™ hits. The primary CPE™ hits were re-arrayed, re-transfected, and screened again by affinity ELISA and also by titration ELISA using both mIL-22 and human IL-22 (hIL-22) for antibodies that bind to both mIL-22 and hIL-22. These 10 mutant antibodies were selected based on ELISA data and sequence diversity, ability to scaled up and purified.

Molecule	ka (human IL-22) [M·s]	kd (human IL-22) [s⁻¹]	ka (mouse IL-22) [M·s]	kd (mouse IL-22) [s⁻¹]	STAT3 Phosphorylation; mIL22 % inhibition (mouse IL-22 (mIL-22))	further results
B1	860000	2.18e-05	194000	0.000768	63.12%	half-life in mice [1]: about 16 hours; effect in treating psoriasis in the mouse model (summary) ([2]; IMQ psoriasis mice): especially effective in treating psoriasis; reduction in body weight of the treated mice ([2]; IMQ psoriasis mice): less reduction in body weight; reduction in body weight of the treated mice ([2]; IMQ psoriasis mice, listed as CSP09): reduction in body weight similar to the PBS buffer negative control; side effect (summary) ([2]; in comparison with the known treatment (dexamethasone)): only a minimal side effect; ear skin thickness ([2]; vs negative controls (isotype matched antibody, PBS, vehicle) (FIG. 14)): less; skin erythema score ([2]; vs negative controls (isotype matched antibody, PBS, vehicle) (FIG. 15)): lower; skin scale score ([2]; vs negative controls (isotype matched antibody, PBS, vehicle) (FIG. 16)): lower; skin thickness ([2]; vs negative controls (isotype matched antibody, PBS, vehicle) (FIG. 17)): lower; Aggregate formation at 10 mg/mL in PBS [3]: no; Thermostability (% remaining activity 60 min); of duplicate samples (Thermostability): 102%
B2	1.33e+06	6.94e-05	252000	0.00158	–	–
B3	381000	5.93e-05	34100	0.00137	–	–
B4	1.28e+06	3.74e-05	279000	0.00118	–	–
B5	1.13e+06	3.55e-05	256000	0.00123	–	–
B6	–	–	–	–	no inhibition	Affinity ELISA mIL22 50% max signal mAb (mIL22; first mIL22 line of Table 3): no binding; Affinity ELISA mIL22 50% max signal mAb (mIL22; second mIL22 line of Table 3): no binding
